The supplement of paper PMC12636428

Test system: Saccharomyces cerevisiae
Assay: transcriptional activation domain activity (GFP:mCherry ratio, weighted mean of sorted bins, harmonized to initial dataset scale) (arbitrary fluorescence ratio units); higher = stronger transcriptional activation
Conditions: beta-estradiol 1 µM; induction time 4 h
How it was run: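 After a 1:5 dilution into SC with 1 uM beta-estradiol and 4 hours at 30 °C, yeast diploids carrying a GFP reporter and URA3-integrated barcoded tiles were sorted into 8 bins by GFP:mCherry ratio. The tiles were fused to an estradiol-inducible synthetic transcription factor. Barcodes were sequenced, tiles below 50 reads were discarded, and activation activity was taken as the read-weighted mean of bin median fluorescence, averaged across barcodes and linearly mapped onto the initial dataset scale.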

Sequence | transcriptional activation domain activity
ICIIPFVNGFLCEPILPLFFFCSFLILSESWFIFLHWFGSWSLVIYFGSWCLF | 79700
GNTVAIFVPFWEYCVLFPSELRIWKRMLRARPFRWHFAPIMTIILRYLLIIFA | 45200
GSKIILVVEQCMCVVIWGCKVCFLLIFWKLAWGLRVRLLIKLVASYVVATFLV | 65900
IVLSVLCSLLNTTLKYNPATWRVPYDHVVFKDSRQILVSYCLQFLLVLILYPV | 46600
FVGFVGSLKRQFLRQQFGLFCWVHMSLLLIVCASHFVMNNILEGMIWFWVPAS | 60400
MVQNWEFFVFFFRFVKFTCVQCGLWCGSPGKLLGLFLFLVCCVLFFFFFFLVE | < 6570
IIDKLGSLTFVYARRNPITIGTFAATETAILEHYGAGNIWKYILWHWVICFYS | 44400
TAAPYHKLAYHPALSPKISLGFWPFQHILTFLDYKEYVLQWTLLVTVQIPWFN | 64700
EMLSASKGRKKARMEEEDEDEWAGDGASKAKAKGKKAAKKPAKARAPKGKAAA | 37400
VGIKVAEDKQQEMRDAGRRTRGARLSSFGNALVIGGGRLSDGYVGTRELKTHV | 50500
MDPGLFLMVLLWLSLPLSIVPWNLPMNWCFQSCDTIRPYQARLSGFFLLLLFQ | 48600
EGEDALTLPLIISSQALLVVPPEKIVALPLQQMLSLVVRAITQAFVHGAFISR | 67100
TYSDVDGEILWPPPVMNVMMIERCGAVCCRVSVGWVLLRRWAQVKRKWETIVL | 41700
MVLLSVLCVLICNYFCLLVFTVAMGMPSGPPVRPLFQVILAHRRYLFSFRTHW | 82500
YSYVDSNMDSISSVVSEDLLDERGHEKIEDEDEDNDLDEDDIYDISLLKNRRK | 26500
REGGGEGGGAQDGSSAPKKKRLGRKERIKSKAAGGDTGGEGADGAAASPEGAG | 39600
EAPKPAPEQPKPKPVQEKPAAPAAETKEKGKAAPEPEAEDKKPARRPRKAKQP | 8950
MVGVNGDHELLLCAIMFPPVLLIINSLLVSILFNDCFLVLSDILLCWMLSVVV | 50400
MRIRYEMSWGFLLSFLLSNGRRKIDHGTSSLRMTLGFLIAHRVYMMIILNFYT | 47200
GGKKGGRTKGATARDKSPEGRTDRPASKGKSLKTGGEDGKGKKSGERAGKLAH | 60400
MPPNHPIRLFPLLVQILLLLSASSLLLDTYDYINLGINSSFSYYYFLHLLTFL | 44200

Sequence | transcriptional activation domain activity
FSLFLLSLLPTADAFFPLLLFVSCWLTLYTFVLCLLSYFFYSLTLTLYVCLVS | 55800
NFLLNVSVVTRWFLFIVPVLGLLWIPGILSVTSFPNATVWSVRLLWWSIWLTV | 63900
MNFTDIYFSDIIYVLLLYLLILFTFFLDLLISFTFVTLYSILFLFVLYSFILN | 70500
DQCDITPEMRKEYNIDGADKANNPELAMDWLLVHLLFRTLQLLPNMFRAWLFN | 56200
SLAFPLFIIARYFPLGLIAIDFIQLAAPTHSQVTCTVLFRLYILLLMIITFST | 40900
MRKFLFQSFDILYLLIFLSFFFILSLFFFILIIFGSSPFIYFIFYFNHFFFFD | 26900
EEKKEDDWQVLDGKEKAAGGAGEGDAAEGAEGGATTEGEKKDDAGGAPAGEGA | < 6570
PTTTTTPSSPSTTCRSPTRRRAPRRRSACTGSRTRRGSPQSRRRCCRRTTSTT | 28900
KKPAAKAKAGPSKANGEAAANGKGEEKEQEKEEAPKEKFKAAKLADPAAPGSK | 31200
SVMKTLLDERRTSGTQPTTAPVAAEEPRLENVALENFVSIGWKLLDDSELGWY | 71200
MIFMPSCCGFFISMFTTYGTLFSIRGILTYNPFFLCTFLFPFLFHGVPCLFLF | 49700
SKRAQDPLRIWDAMIDVHVHLPAGAQKKDGPSAGVAMVIVCAIVSLLTGKCVP | 46600
ALIHLPRPQNELVLTLIIRWLVRTTSPLGVIRAAQTHIGAIGYPDVWPTVLFF | 68900
GKGKPRDNAKEEEKEEERKIPQAIVVSGLHHASTAAQLALSSALREGEIEMDG | 15000
ARYIVKYKNGLIGKHFKILQHLGIFHLHNDLCGDNLFNLWKAAGGLGALLWFP | 57600
GKGHYVTFSFVMADIILGMSAPMLRICVCHCVPQRQRKSNIILLQIILLFYER | 54500
PRVVELQKEVIAYNKRLLALNIRDHQVQYAKLNIFYCFGLFWYRVLKLLVLSA | 38500
TWPYSSLSELEDLMDRFKRMLTLLRMHLKHVAELEVMVTLWKYMGVLLEFLGS | 61800
DTWGMEMEMEMEFLFLFLFVIFFLPCLSFFFSYFFSSNLLFFFFVFVMSFSFM | 73000
MLIFYFYFYFYFYLNFFYFFSFVSGWFVLGKDVFVLFLFPFSLSGFSYFVFGY | 46700
IKLMTLLYVFCRCSAVANVIYTVAITSSLDTLRVTYRISSVISLLCRTSVMMV | 43300

Sequence | transcriptional activation domain activity
SAFDLADAIEKQSVSKLEKFSTTALSLELNCLVCLIKVLLKMYLSSDPAFEPY | 42200
LSVVHISAPGYQAFFLLQSFRYILLWVLSFLSHFFLPFFLLCQGCFLVQHLPT | 54000
KVVQQFCGCHSRAANGCSGDELLRQYDYDEEDTVSSNRRFANETCRVAVLTVR | 65900
SAAAAAPVAAAAAPAAASSIAPAVVGGAVGAAAIGGGAAIAASSDKAAAAAAA | 37700
NLMVIVLFVGNLRLVIENIQKYGVLICIRCHDVRESDLILGLSLYFLIPCHLL | 67300
LSVSVQGGQLQLRGLNITLTRCHDFMRNIFPLDFPQGRLLALILSLRLFFLST | 84500
EAERERLEREVEAENVRKAEEERKEKERLVKEARERAAREAAEREAAAAAAAA | 52700
HKLALNLKTAWKGRKYEIPLFGVHIAGQYVSTYIFYEVASFKAFFNYIFSFTR | 69100
MGVWFGMAVLFLFLHLGFFLFCYFICLLLDNSFFLSWPLETVRALQMGLQIGG | 36700
GEVTEAEANGEAPKPEGEAAAEASPKPRKKKSPRKKKAAAPAEGEAAATEATA | 19600
VNLHRARLRSCLDIIHLHIALGSTKRGLERVFELRRMLVSLLALHPFFRPTST | 46100
GAAEVDAAAPEGAETIEGAPAATEKQPRPPKKPRTPRPRRPAGEEPAGEPSKN | 29700
WLSDENDGASHINVNKDSSSVLSASSSTWFEPLENIISSASSSSIGSPIEDQF | 60800
FCRCLTGTGKSRMGVPVVSRLLCHFQGLLLRVMAHLFEDRPGSVRWMTIELLK | 28500
STRNYKLYIGNTVFFCGGRFLTSRAFWAFGLSLFLINMPAILFIIFSCPWLWY | 55900
RLAELCLLIDPRLLVKLAGVMARYIESMATYRAHPRQIYNRQCSVFNTSLKLF | 62200
EQFVLRDCGLLLWIDLRFLCHCARICLSACLDNYVYGVANITGKLVRFWGLGV | 63400
LLKNNILKWMCLVFRFVTRRVRFTYLTLPLATRCVGQGLVYIIRIIQDGHSYI | 43100
ESCDGSLWLCPFSQPVRPSLIKLVSRGIDRRRITSLLFMLWLVCWAVSLLFSK | 59900
KQYCVRPNSGRIEPGKDVEVQILLQAMKEDPPMDAKCRDKFLVQSVAVTADKE | 59200
MGPMMQQIQQPCGDCRGEGEIINAKDKCKACNARKVTQTRKVLEVHIDRGMKD | 45700

Sequence | transcriptional activation domain activity
KVAAGANGETDGEAKTKKKSSKRVSRRRQPGEEDDEEEAEGAGEGAEKAKKNK | 20300
MSMGIEFPFFTFRFSPSPLLLLLPFPPPFLPPFCLSAFFPSPLSPLPFPFLPS | 51400
RKGEGEGSEPPHPAEPRRLRRSHEACARCRSKKIKCDSKHPRCTACATAGTPC | 23800
FLLCTFFAIFAFLLCYLLAFFSFHVFLYDDSLFLFYYCMSAACTFFCCMFLEF | 39600
QMLNPLEKILLSLASIVLSSRVSRNLFVLYALGLHFIVLFTLYSVVYVFIFCS | 37500
FKDLLVEGFDNNRLIVAIPFVCKVLEQASKSRVFKPPNPWLMAILRLLVELYH | 51200
PAEGEAAAAPAAEESAAPAARTGSSSSSSSNEEKKKKAAKSKSRSVSRGKRTS | 23200
RSLGIVFYFGLLLSFYFEFFFSSIFSFVIIIWLYPIGFLYICLSAAIPFPLLN | 65000
LLIFYFLFSCICIHFQQHLGLPLYLFNQDWYYAWQALAKQYFGLLLITMTKWW | 53400
MDVEAKGRADRDAKRNPTACEHCRAARTRCQPSEQPGVCKKCLALKRECISRT | 16500
DLYNHSYRLHRRKRPGMKEVYLSAMGFRMMGVKGFREWSFLWRVRLAAAPWWA | 52600
EVRELHLIDRTLDELRTVQLTLTMLHLICAPKPVFHLLRSVVLQCAEPKGLLT | 46300
KNDCCFCYALGLFIRMDCFLRIFVCLCFDVGLYAIEFDLCSLLLACIHVHFSH | 36300
QESIPHQVGFSTPQLTAQQLIENAIESGVVDLETLDLPPFLSLDGLPPASSSA | 116000
CIFFFSYYGIRILQRGVLLLFILLFYISLCDPLLFPPLFFFSSSFLGRAFFLY | 89800
SVLHTMYVVAIKDSSAWYGDSPADLCMIGFWNLVIVWLKLLIPWRFFRLWAIL | 55900
DVDVDVGVDGRGRGFEAGDGREDGKGEEEGGRRLKRAGTDGEAVGGARAREVW | 32500
GPASGASKPKRRYVRKRKEPEEGAGVDNAEASSMAPKPKRQRKKKAPMAEARN | 21900
AKDGELQTKKPRQRKPKAPAATGDADILEVKPKRTRTTRPKVSSYFAEPAAPL | < 6570
MYSRIFIGLSFFLISFFISIIFLFICKEHSFSPIGFFLTRFLLFHVFSLFFTF | 62800
